According to US20250002610A1 (Genmab, published 2025):

T1: FcγRIIb (CD32B/Fcgr2b Protein, Human, Recombinant (His & AVI Tag), Biotinylated) (human, UniProt P31994 43-217, limits assumed, biotinylated)
T1 construct: Bought reagent; not shown: His & AVI tag
T1 sequence (looked up): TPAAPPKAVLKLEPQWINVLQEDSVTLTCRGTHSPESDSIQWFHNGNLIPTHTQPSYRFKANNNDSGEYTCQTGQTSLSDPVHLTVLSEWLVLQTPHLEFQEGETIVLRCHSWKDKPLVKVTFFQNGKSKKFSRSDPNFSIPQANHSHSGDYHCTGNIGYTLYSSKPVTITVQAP

T2: FcγRIIa-R131 (CD32A Protein, Human, Recombinant (167 Arg, His & AVI Tag), Biotinylated) (human, UniProt P12318 34-218, limits assumed, biotinylated)
T2 construct: Bought reagent; not shown: His & AVI tag
T2 sequence (looked up): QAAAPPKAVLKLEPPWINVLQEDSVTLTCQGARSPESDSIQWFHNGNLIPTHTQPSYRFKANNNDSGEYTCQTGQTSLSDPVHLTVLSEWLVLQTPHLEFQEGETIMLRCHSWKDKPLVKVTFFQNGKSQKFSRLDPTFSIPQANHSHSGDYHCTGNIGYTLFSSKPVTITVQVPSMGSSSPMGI

T3: cynomolgus monkey DR4 with death domain deletion on ExpiCHO-S cells (cynomolgus monkey (Macaca fascicularis))
T3 construct: also called cynomolgus DR4
T3 chain: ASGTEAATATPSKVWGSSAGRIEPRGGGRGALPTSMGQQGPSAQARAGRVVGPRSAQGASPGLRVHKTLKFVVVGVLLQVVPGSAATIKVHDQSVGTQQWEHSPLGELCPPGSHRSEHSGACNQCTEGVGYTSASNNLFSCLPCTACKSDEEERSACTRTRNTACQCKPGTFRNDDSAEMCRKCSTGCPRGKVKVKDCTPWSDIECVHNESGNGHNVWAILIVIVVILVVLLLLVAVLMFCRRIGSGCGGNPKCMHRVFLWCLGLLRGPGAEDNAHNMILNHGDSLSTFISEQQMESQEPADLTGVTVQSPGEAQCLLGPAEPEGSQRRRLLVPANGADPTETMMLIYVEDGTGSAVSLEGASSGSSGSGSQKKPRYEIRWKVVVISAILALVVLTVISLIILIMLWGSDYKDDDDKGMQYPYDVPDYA


Key:
[1] = target: T4, FcγRIIIa-V158 (CD16a Protein, Human, Recombinant (176 Val, His & AVI Tag)) (human, UniProt P08637 17-208); assay: SPR (Biacore 8K), His-tagged FcγRIIIa-V158 captured on an anti-His chip, antibody as analyte, endpoint response against concentration
T4 construct: Bought reagent; not shown: His & AVI tag
Description: (§1) Binding of BisG1-FAPα-FERL/DR4-FERR to immobilized human His-tagged FcγRs and FcRn was analyzed by SPR using a Biacore 8K SPR system (Cytiva). To this end, anti-His antibodies were covalently immobilized on the surface of Biacore Series S Sensor Chip CM5 (Cytiva, Cat. #29104988) using the Amine Coupling Kit (Cytiva, Cat. #BR100050) and a His Capture Kit (Cytiva, Cat. #29234602) according to the manufacturer's instructions. To assess antibody binding to immobilized human FcγRs, aliquots of the recombinant His-tagged FcγR proteins (Table 24) were diluted in HBS EP+Buffer pH 7.4 (Cytiva, Cat. #BR100669) and used to capture the FcγR proteins on the surface of the anti-His antibody-coated sensors using a flow rate of 10 μL/min and a contact time of 60 s. Captured levels ranged from 434 to 592 RU. After three start-up cycles of HBS-EP+Buffer, concentration ranges of BisG1-FAPα-FERL/DR4-FERR or IgG1-b12 antibodies (Table 25) were injected to generate binding curves on FcγR-captured sensors (active surface). For each antibody sample, a parallel flow cell without captured FcγRs was included (reference surface), which was used for RU background correction.
(§2) All sensorgrams were subtracted by the signal of the third start-up cycle with buffer only (mock analyte). […]

[2] = target: T1, FcγRIIb (CD32B/Fcgr2b Protein, Human, …); assay: SPR (Biacore 8K), His-tagged FcγRIIb captured on an anti-His chip, antibody as analyte, endpoint response against concentration
Description: as §1, §2

[3] = target: T5, FcγRIIIa-F158 (CD16a Protein, Human, Recombinant (ECD, 176 Phe, His & AVI Tag)) (human, UniProt P08637 17-208); assay: SPR (Biacore 8K), His-tagged FcγRIIIa-F158 captured on an anti-His chip, antibody as analyte, endpoint response against concentration
T5 construct: extracellular domain; Bought reagent; not shown: His & AVI tag
Description: as §1, §2

[4] = target: T2, FcγRIIa-R131 (CD32A Protein, Human, …); assay: SPR (Biacore 8K), His-tagged FcγRIIa-R131 captured on an anti-His chip, antibody as analyte, endpoint response against concentration
Description: as §1, §2

[5] = target: T3, cynomolgus monkey DR4 with death domain …; assay: flow cytometry, ExpiCHO-S cells expressing cynomolgus monkey DR4, average ± SEM
Description: Binding of BisG1-FAPα-FERL/DR4-FERR, BisG1-DR4-FEAL/b12-FEAR and IgG1-DR4-FERR to DR4 of various species commonly used for nonclinical toxicology studies was assessed by flow cytometry using ExpiCHO-S cells transiently expressing DR4 from different animal species. In contrast to other species, rodents only express one DR which has highest homology with human DR5. Therefore, ExpiCHO-S cells transiently expressing rat and mouse DR protein were used instead. All DR constructs lack the intracellular DD to avoid apoptosis of transfected cells upon DR(4) activation. IgG1-b12 was used as negative control.

T4 sequence (P08637 17-208 F176V limits assumed): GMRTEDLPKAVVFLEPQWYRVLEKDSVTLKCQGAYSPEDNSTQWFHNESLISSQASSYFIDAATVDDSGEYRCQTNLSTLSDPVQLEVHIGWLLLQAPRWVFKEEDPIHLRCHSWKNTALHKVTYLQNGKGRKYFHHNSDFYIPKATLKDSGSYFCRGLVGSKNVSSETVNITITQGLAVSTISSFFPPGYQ
T5 sequence (P08637 17-208): as the sequence (P08637 17-208 F176V limits assumed) above, with V160F counted along it

Binder | binding result [1] | binding result [2] | binding result [3] | binding result [4] | EC50 [5]
IgG1-b12 (antibody, HIV gp120 antibody b12 with wild-type IgG1 Fc; also called IgG-b12) heavy: not shown light: EIVLTQSPGTLSLSPGERATFSCRSSHSIRSRRVAWYQHKPGQAPRLVIHGVSNRASGISDRFSGSGSGTDFTLTITRVEPEDFALYYCQVYGASSYTFGQGTKLERKRTVAAPSVFIFPPSDEQLKSGTASVVCLLNNFYPREAKVQWKVDNALQSGNSQESVTEQDSKDSTYSLSSTLTLSKADYEKHKVYACEVTHQGLSSPVTKSFNRGEC | binds | binds | binds | binds | –
IgG1-DR4-FERR (antibody, V domains shown, Bivalent monoclonal IgG1 lambda) VH: QVQLQESGPGLVKPSGTLSLTCAVSGGSISSYSWWSWIRQPPGKGLEWIGELYHSGSTNYNPSLKSRVTISVDKSKNQFSLKLRSVTAADTAVYYCVRGVATIDYWGQGTLVTVSS VL: QSALTQPPSASGSPGQSVTISCTGTSSDVGGYNFVSWYQQDPGKAPKLLIYEVTKRPSGVPDRFSGSKSGNTASLTVSGLQAEDEADYYCSSYAGSNNVMFGGGTKLTVLG | – | – | – | – | 1.84 µg/mL
